Experimental data: patent publication US20020111304A1 (SCHEPENS EYE RESEARCH INSTITUTE, published 2002)

How the values were obtained:
Test in all cases: co-immunoprecipitation with anti-αPDGFR antibody from F cells, Western blot
[1] = target: T1, phospholipase C-γ1 (PLCγ) (UniProt Q62077 2-1302, limits assumed)
T1 construct: Endogenous protein that co-precipitates with the receptor from F cell lysates; also called phospholipase C-gamma
T1 sequence (looked up): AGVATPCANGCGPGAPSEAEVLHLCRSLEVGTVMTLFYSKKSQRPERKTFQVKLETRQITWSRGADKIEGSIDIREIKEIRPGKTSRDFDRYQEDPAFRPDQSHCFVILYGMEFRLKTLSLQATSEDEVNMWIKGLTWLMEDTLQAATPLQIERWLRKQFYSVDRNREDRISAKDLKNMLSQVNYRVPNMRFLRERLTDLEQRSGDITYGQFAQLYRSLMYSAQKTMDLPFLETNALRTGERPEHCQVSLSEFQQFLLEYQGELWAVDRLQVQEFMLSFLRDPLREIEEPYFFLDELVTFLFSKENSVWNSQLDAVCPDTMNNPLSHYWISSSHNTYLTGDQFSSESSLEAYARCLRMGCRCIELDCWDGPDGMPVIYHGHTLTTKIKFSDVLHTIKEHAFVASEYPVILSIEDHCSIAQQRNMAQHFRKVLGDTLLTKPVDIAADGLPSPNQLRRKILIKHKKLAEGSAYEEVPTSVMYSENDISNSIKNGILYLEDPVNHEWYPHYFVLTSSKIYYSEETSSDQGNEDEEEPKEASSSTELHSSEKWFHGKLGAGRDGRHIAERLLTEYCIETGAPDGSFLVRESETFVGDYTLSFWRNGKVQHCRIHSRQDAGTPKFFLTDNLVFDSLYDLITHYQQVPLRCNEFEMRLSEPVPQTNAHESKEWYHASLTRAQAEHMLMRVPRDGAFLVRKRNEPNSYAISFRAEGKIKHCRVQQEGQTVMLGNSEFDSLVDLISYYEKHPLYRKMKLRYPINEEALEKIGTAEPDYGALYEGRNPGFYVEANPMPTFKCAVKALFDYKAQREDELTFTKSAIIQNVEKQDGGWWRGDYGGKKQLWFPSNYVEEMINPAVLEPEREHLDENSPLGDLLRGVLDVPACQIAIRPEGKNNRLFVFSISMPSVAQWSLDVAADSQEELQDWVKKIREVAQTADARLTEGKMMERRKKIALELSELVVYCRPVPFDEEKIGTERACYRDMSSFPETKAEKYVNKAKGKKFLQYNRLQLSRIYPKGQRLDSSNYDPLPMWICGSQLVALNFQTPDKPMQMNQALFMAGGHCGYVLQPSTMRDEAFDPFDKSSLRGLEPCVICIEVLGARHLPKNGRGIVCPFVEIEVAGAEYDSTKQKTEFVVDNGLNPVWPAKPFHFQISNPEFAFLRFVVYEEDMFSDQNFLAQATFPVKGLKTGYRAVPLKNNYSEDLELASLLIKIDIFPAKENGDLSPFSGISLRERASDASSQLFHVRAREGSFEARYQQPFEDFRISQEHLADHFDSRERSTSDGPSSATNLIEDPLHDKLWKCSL
Description: (§1) Portions of the membrane that contained the proteins of the appropriate molecular mass were immunoblotted for PLCγ, the regulatory subunit of PI3K (p85), or SHP-2. Crude rabbit anti-p85 antibody is from Dr. A. Toker (Beth Israel Hospital/Harvard Medical School, Boston, Mass.). The monoclonal antibodies against PLCγ and SHP-2 were purchased from Upstate Biotechnology Inc.

[2] = target: T2, regulatory subunit of PI3K (p85) (UniProt P26450 2-724)
T2 construct: The catalytic subunit is not described; also called phosphoinositide 3-kinase
Description: as §1

[3] = target: T3, tyrosine phosphatase SHP-2 (UniProt P35235 2-593, limits assumed)
T3 construct: Endogenous protein that co-precipitates with the receptor from F cell lysates
T3 sequence (looked up): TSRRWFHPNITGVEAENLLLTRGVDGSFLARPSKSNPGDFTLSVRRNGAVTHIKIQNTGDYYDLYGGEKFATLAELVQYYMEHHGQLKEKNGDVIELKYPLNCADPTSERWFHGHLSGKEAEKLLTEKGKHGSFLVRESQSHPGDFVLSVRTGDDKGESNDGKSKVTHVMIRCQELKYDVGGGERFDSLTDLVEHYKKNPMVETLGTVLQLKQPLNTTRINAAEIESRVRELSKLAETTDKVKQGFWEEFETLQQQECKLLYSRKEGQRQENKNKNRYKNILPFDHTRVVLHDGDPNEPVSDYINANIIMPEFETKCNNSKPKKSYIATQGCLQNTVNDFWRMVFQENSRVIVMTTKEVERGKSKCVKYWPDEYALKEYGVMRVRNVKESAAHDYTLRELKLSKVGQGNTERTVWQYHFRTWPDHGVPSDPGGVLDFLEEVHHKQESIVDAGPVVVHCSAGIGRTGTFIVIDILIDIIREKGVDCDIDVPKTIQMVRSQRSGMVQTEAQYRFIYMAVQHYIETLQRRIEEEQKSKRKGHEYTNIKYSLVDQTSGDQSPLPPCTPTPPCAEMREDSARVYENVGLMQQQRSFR
Description: as §1

Measured: binding result

T2 sequence (P26450 2-724): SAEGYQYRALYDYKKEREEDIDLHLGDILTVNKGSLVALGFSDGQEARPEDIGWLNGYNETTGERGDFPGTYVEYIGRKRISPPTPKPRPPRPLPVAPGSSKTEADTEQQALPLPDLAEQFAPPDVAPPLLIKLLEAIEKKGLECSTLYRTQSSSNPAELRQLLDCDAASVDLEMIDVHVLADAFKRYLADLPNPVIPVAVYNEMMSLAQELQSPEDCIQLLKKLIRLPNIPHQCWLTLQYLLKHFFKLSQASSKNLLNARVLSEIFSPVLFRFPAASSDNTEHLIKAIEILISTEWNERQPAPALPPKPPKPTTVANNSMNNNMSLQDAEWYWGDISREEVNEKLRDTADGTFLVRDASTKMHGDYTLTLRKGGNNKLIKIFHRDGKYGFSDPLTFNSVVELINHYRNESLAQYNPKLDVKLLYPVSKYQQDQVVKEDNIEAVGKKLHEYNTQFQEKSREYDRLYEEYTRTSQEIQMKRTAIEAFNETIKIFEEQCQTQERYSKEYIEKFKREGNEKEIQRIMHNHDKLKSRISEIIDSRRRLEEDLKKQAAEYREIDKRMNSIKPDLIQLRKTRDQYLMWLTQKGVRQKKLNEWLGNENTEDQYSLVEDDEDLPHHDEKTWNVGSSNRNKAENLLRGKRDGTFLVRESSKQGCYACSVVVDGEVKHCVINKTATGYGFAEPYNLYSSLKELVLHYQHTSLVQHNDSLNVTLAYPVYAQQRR

B1: αPDGFR mutant F7 (Tyr to Phe substitution at 572, 574, 720, 731, 742, 988, and 1018) (receptor)
chain: QLSLPSILPNENEKVVQLNSSFSLRCFGESEVSWQYPMSEEESSDVEIRNEENNSGLFVTVLEVSSASAAHTGLYTCYYNHTQTEENELEGRHIYIYVPDPDVAFVPLGMTDYLVIVEDDDSAIIPCRTTDPETPVTLHNSEGVVPASYDSRQGFNGTFTVGPYICEATVKGKKFQTIPFNVYALKATSELDLEMEALKTVYKSGETIVVTCAVFNNEVVDLQWTYPGEVKGKGITMLEEIKVPSIKLVYTLTVPEATVKDSGDYECAARQATREVKEMKKVTISVHEKGFIEIKPTFSQLEAVNLHEVKHFVVEVRAYPPPRISWLKNNLTLIENLTEITTDVEKIQEIRYRSKLKLIRAKEEDSGHYTIVAQNEDAVKSYTFELLTQVPSSILDLVDDHHGSTGGQTVRCTAEGTPLPDIEWMICKDIKKCNNETSWTILANNVSNIITEIHSRDRSTVEGRVTFAKVEETIAVRCLAKNLLGAENRELKLVAPTLRSELTVAAAVLVLLVIVIISLIVLVVIWKQKPRYEIRWRVIESISPDGHEFIFVDPMQLPYDSRWEFPRDGLVLGRVLGSGAFGKVVEGTAYGLSRSQPVMKVAVKMLKPTARSSEKQALMSELKIMTHLGPHLNIVNLLGACTKSGPIYIITEYCFYGDLVNYLHKNRDSFLSHHPEKPKKELDIFGLNPADESTRSFVILSFENNGDFMDMKQADTTQFVPMLERKEVSKYSDIQRSLYDRPASYKKKSMLDSEVKNLLSDDNSEGLTLLDLLSFTYQVARGMEFLASKNCVHRDLAARNVLLAQGKIVKICDFGLARDIMHDSNYVSKGSTFLPVKWMAPESIFDNLYTTLSDVWSYGILLWEIFSLGGTPYPGMMVDSTFYNKIKSGYRMAKPDHATSEVYEIMVKCWNSEPEKRPSFYHLSEIVENLLPGQYKKSYEKIHLDFLKSDHPAVARMRVDSDNAFIGVTYKNEEDKLKDWEGGLDEQRLSADSGFIIPLPDIDPVPEEEDLGKRNRHSSQTSEESAIETGSSSSTFIKREDETIEDIDMMDDIGIDSSDLVEDSFL
notes: Expressed in F cells and immunoprecipitated from lysates
no binding: [1] | [2] | [3]
